One assay deals with X. citri VirD4 all-alpha domain (VirD4AAD) (Xanthomonas citri). Briefly: SEC-MALS.
Substance “XAC2609_(XVIPCD)Δ20 (residues 311–411) (from UniProt A0AAI7ZGC7 311-411) (domain or fragment)” yielded a stoichiometry N of 1. On to “X-Tfe^XAC2609 XVIPCD (XAC2609_(XVIPCD), residues 311–431) (from UniProt A0AAI7ZGC7 311-431) (domain or fragment)”, for which the stoichiometry N was determined as 1.

The next assay shares this target. Briefly: ITC.
In the case of “XAC2609_(XVIPCD) D383A/P384A (from UniProt A0AAI7ZGC7 311-431) (domain or fragment)”, the equilibrium dissociation constant (Kd) was 28 µM. In the case of “XAC2609_(XVIPCD) D363A (from UniProt A0AAI7ZGC7 311-431) (domain or fragment)”, the Kd worked out at 29 µM. “XAC2609_(XVIPCD) H315A/P316A/D317A (from UniProt A0AAI7ZGC7 311-431) (domain or fragment)” yielded a Kd of 1.2 µM. Substance “full-length X-Tfe^XAC2609 (from UniProt A0AAI7ZGC7 1-431) (natural protein)” had a dissociation constant Kd of 0.4 µM. Against the preceding substance, the Kd is about 3-fold lower.

Values taken from publication PMC8740702.
